# B1: Eukaryotic translation initiation factor 4 gamma 1 (Homo sapiens), Q04637-8 (parent)
# chain: MNKAPQSTGPPPAPSPGLPQPAFPPGQTAPVVFSTPQATQMNTPSQPRQHFYPSRAQPPSSAASRVQSAAPARPGPAAHVYPAGSQVMMIPSQISYPASQGAYYIPGQGRSTYVVPTQQYPVQPGAPGFYPGASPTEFGTYAGAYYPAQGVQQFPTGVAPTPVLMNQPPQIAPKRERKTIRIRDPNQGGKDITEEIMSGARTASTPTPPQTGGGLEPQANGETPQVAVIVRPDDRSQGAIIADRPGLPGPEHSPSESQPSSPSPTPSPSPVLEPGSEPNLAVLSIPGDTMTTIQMSVEESTPISRETGEPYRLSPEPTPLAEPILEVEVTLSKPVPESEFSSSPLQAPTPLASHTVEIHEPNGMVPSEDLEPEVESSPELAPPPACPSESPVPIAPTAQPEELLNGAPSPPAVDLSPVSEPEEQAKEVTASMAPPTIPSATPATAPSATSPAQEEEMEEEEEEEEGEAGEAGEAESEKGGEELLPPESTPIPANLSQNLEAAAATQVAVSVPKRRRKIKELNKKEAVGDLLDAFKEANPAVPEVENQPPAGSNPGPESEGSGVPPRPEEADETWDSKEDKIHNAENIQPGEQKYEYKSDQWKPLNLEEKKRYDREFLLGFQFIFASMQKPEGLPHISDVVLDKANKTPLRPLDPTRLQGINCGPDFTPSFANLGRTTLSTRGPPRGGPGGELPRGPQAGLGPRRSQQGPRKEPRKIIATVLMTEDIKLNKAEKAWKPSSKRTAADKDRGEEDADGSKTQDLFRRVRSILNKLTPQMFQQLMKQVTQLAIDTEERLKGVIDLIFEKAISEPNFSVAYANMCRCLMALKVPTTEKPTVTVNFRKLLLNRCQKEFEKDKDDDEVFEKKQKEMDEAATAEERGRLKEELEEARDIARRRSLGNIKFIGELFKLKMLTEAIMHDCVVKLLKNHDEESLECLCRLLTTIGKDLDFEKAKPRMDQYFNQMEKIIKEKKTSSRIRFMLQDVLDLRGSNWVPRRGDQGPKTIDQIHKEAEMEEHREHIKVQQLMAKGSDKRRGGPPGPPISRGLPLVDDGGWNTVPISKGSRPIDTSRLTKITKPGSIDSNNQLFAPGGRLSWGKGSSGGSGAKPSDAASEAARPATSTLNRFSALQQAVPTESTDNRRVVQRSSLSRERGEKAGDRGDRLERSERGGDRGDRLDRARTPATKRSFSKEVEERSRERPSQPEGLRKAASLTEDRDRGRDAVKREAALPPVSPLKAALSEEELEKKSKAIIEEYLHLNDMKEAVQCVQELASPSLLFIFVRHGVESTLERSAIAREHMGQLLHQLLCAGHLSTAQYYQGLYEILELAEDMEIDIPHVWLYLAELVTPILQEGGVPMGELFREITKPLRPLGKAASLLLEILGLLCKSMGPKKVGTLWREAGLSWKEFLPEGQDIGAFVAEQKVEYTLGEESEAPGQRALPSEELNRQLEKLLKEGSSNQRVFDWIEANLSEQQIVSNTLVRALMTAVCYSAIIFETPLRVDVAVLKARAKLLQKYLCDEQKELQALYALQALVVTLEQPPNLLRMFFDALYDEDVVKEDAFYSWESSKDPAEQQGKGVALKSVTAFFKWLREAEEESDHN
# Variants of: B1
# Conditions: with if4g1_human EIF4G1, Q04637
row,effect of a mutation on the interaction,Variant
1,disrupting interaction,I1278A;F1279A;V1280A

# — IntAct's records for PubMed 16698552
